Results on three molecules are retold here after patent US20190271705A1.

For assay [1], the target named is seven peptides (fluorescein-labeled pTyr-containing peptides of the fluorescence polarization assay). The assay is described as follows: fluorescence polarization in solution, SH2 domain titrated against fluorescein-labeled peptide. (In general: Polarisation of emitted light reports the rotation of a fluorescent probe.)
The target is the same in assay [2]. Kind of assay: fluorescence polarization in solution; average over seven peptides, reference wild-type Fyn SH2 domain.

B1: wild-type Fyn SH2 domain (hexa-histidine-tagged construct, SEQ ID NO:4) (protein)
chain: MKIEEHHHHHHSSGRENLYFQGGAAQPAAPVDSIQAEEWYFGKLGRKDAERQLLSFGNPRGTFLIRESETTKGAYSLSIRDWDDMKGDHVKHYKIRKLDNGGYYITTRAQFETLQQLVQHYSERAAGLSSRLVVPSHKGAAA
As for B1, the equilibrium dissociation constant (Kd) (in general, the concentration at which binding is half-saturated) in assay [1] is 10 µM.

B2: T8I/S10A/K15L variant Fyn SH2 domain (designed binder)
chain: MKIEEHHHHHHSSGRENLYFQGGAAQPAAPVDSIQAEEWYFGKLGRKDAERQLLSFGNPRGTFLIRESETIKGAYALSIRDWDDMKGDHVKHYLIRKLDNGGYYITTRAQFETLQQLVQHYSERAAGLSSRLVVPSHKGAAA
Molecule B2 displayed an average fold affinity increase (Kd[wild-type] divided by Kd[variant]) in assay [2] of 86.4 fold.

B3: T8V variant Fyn SH2 domain (designed binder)
chain: MKIEEHHHHHHSSGRENLYFQGGAAQPAAPVDSIQAEEWYFGKLGRKDAERQLLSFGNPRGTFLIRESETVKGAYSLSIRDWDDMKGDHVKHYKIRKLDNGGYYITTRAQFETLQQLVQHYSERAAGLSSRLVVPSHKGAAA
On to B3, for which the average fold affinity increase (Kd[wild-type] divided by Kd[variant]) in assay [2] was determined as 1.4 fold.
